The values below come from patent US20200247855A1, “THERAPY AND DIAGNOSTICS” (OXFORD UNIVERSITY INNOVATION LIMITED, priority 2017, published 2020).

Common to all, as to test: Yeast surface display (YSD) FACS binding
One assay concerns the target CCL20_HUMAN (Homo sapiens, UniProt P78556). The procedure, abridged:
(§1)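 Yeast clones displaying tick peptides were re-tested by FACS with labelled chemokine. Binding = % of peptide-expressing yeast above a background threshold set with streptavidin-Alexa647 alone; the mean percent shift was used where several clones were isolated. Confirmed binding ("YES") required >3-fold over background mean fluorescence intensity.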

The next assay concerns the target T1, CCL17_HUMAN (Homo sapiens, UniProt Q92583).
T1 sequence (Q92583 24-94): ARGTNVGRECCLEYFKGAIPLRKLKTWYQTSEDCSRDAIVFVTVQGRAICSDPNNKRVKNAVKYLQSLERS
The procedure, abridged:
as §1

The target in a further assay is CCL11_HUMAN (Homo sapiens, UniProt P51671). The procedure, abridged:
as §1

The target in a further assay is T2, CCL8_HUMAN (Homo sapiens, UniProt P80075).
T2 sequence (P80075 24-99): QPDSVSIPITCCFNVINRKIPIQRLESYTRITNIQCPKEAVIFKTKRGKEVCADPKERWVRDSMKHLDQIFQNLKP
The procedure, abridged: as §1

For another assay, the target named is T3, CCL5_HUMAN (Homo sapiens, UniProt P13501).
T3 sequence (P13501 24-91): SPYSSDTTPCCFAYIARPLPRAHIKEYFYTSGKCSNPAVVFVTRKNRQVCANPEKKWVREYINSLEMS
The procedure, abridged:
as §1

Another assay has as its target T4, CCL3_HUMAN (Homo sapiens, UniProt P10147).
T4 sequence (P10147 24-92): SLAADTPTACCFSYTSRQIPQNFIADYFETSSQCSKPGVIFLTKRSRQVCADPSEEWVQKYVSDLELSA
The procedure, abridged:
as §1

The target in the next assay is T5, CXCL8_HUMAN (Homo sapiens, UniProt P10145).
T5 sequence (P10145 21-99): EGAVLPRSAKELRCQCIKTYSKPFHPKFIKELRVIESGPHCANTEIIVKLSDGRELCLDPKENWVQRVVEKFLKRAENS
Set-up: label (chemical). The note with it: yeast surface display. The procedure, abridged:
(§2)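 Yeast clones displaying tick peptides were re-tested by FACS with labelled chemokine detected by streptavidin-Alexa conjugate. Binding was scored as % of peptide-expressing cells above a background set with streptavidin-Alexa alone, averaged over independent clones. In the screen tables, >3-fold over background mean fluorescence intensity was scored as binding.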

The target in the next assay is T6, CCL18_HUMAN (Homo sapiens, UniProt P55774).
T6 sequence (P55774 21-89): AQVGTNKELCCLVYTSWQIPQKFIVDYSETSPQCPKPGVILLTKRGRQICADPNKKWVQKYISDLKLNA
The procedure, abridged:
as §1

The target in another assay is T7, CCL25_HUMAN (Homo sapiens, UniProt O15444).
T7 sequence (O15444 24-150): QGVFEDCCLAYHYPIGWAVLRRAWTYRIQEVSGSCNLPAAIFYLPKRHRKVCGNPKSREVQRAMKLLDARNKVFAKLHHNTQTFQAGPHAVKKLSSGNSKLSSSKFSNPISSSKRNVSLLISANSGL
The procedure, abridged: as §1

Another assay addresses CXCL12_HUMAN (Homo sapiens, UniProt P48061). The note with it: yeast surface display. The procedure, abridged:
as §2

CCL11_HUMAN, sequence (P51671 24-97): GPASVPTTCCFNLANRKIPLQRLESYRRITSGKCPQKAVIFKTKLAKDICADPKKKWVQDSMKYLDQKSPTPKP
CCL20_HUMAN, sequence (P78556 27-96): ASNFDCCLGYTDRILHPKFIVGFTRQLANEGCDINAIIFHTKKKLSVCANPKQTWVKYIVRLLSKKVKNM
CXCL12_HUMAN, sequence (P48061 22-93): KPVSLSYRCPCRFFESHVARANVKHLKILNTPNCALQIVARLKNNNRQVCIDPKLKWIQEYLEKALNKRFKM

B1: P1030_AMBPA: tick CKBP, Amblyomma parvum (protein, listed as Amblyomma parvum)
chain: GPPSIPGNESIPGCGDAGTTTAPEDNPKHYGTLTDKKGCTLPIIGTWMTAVDHQHLQGTRGERRGPTGKVNLPASCRKNCHGRQEILRDGIPCRKVVGNPKGSKKHLKSGCLRGKCLAGQCVNDGRRISCYVPRNITDTEPTPGLLAE
In the case of B1, the “Binding to CCL20_HUMAN, YSD” value with CCL20_HUMAN is “YES (An arbitrary threshold of >3 fold over background mean fluorescence intensity was chosen to describe confirmed re-tests. Where binding was detected data are indicated as “YES”)”. Also, in the assay with CCL17_HUMAN, the “Binding to CCL17_HUMAN, YSD” value is recorded as “YES (An arbitrary threshold of >3 fold over background mean fluorescence intensity was chosen to describe confirmed re-tests. Where binding was detected data are indicated as “YES”)”. Moreover, the “Binding to CCL11_HUMAN, YSD” value with CCL11_HUMAN is on record as “YES (An arbitrary threshold of >3 fold over background mean fluorescence intensity was chosen to describe confirmed re-tests. Where binding was detected data are indicated as “YES”)”. In addition, the “Binding to CCL8_HUMAN, YSD” value in the assay with CCL8_HUMAN is recorded as “YES (An arbitrary threshold of >3 fold over background mean fluorescence intensity was chosen to describe confirmed re-tests. Where binding was detected data are indicated as “YES”)”. Further, the “Binding to CCL5_HUMAN, YSD” value with CCL5_HUMAN is listed as “YES (An arbitrary threshold of >3 fold over background mean fluorescence intensity was chosen to describe confirmed re-tests. Where binding was detected data are indicated as “YES”)”. Moreover, the “Binding to CCL3_HUMAN, YSD” value with CCL3_HUMAN is reported as “YES (An arbitrary threshold of >3 fold over background mean fluorescence intensity was chosen to describe confirmed re-tests. Where binding was detected data are indicated as “YES”)”. For the same molecule, in the assay with CXCL8_HUMAN, the “Binding to CXCL8_HUMAN, YSD” value is “YES (An arbitrary threshold of >3 fold over background mean fluorescence intensity was chosen to describe confirmed re-tests. Where binding was detected data are indicated as “YES”)”.

B2: P1011_AMBTR: tick CKBP, Amblyomma triste (protein)
chain: EKDTPKNIPGCEDAGTTAAPPADNPKHYAVYTDKNGCTFKVIGTWMTKEDHRRLPVSLRRVRASSGRVKLPASCQKICKHSVKKFPEGTPCRLVTRDPIKGKNHIKNGCIRGYCSSGVCVSDNRSISCYVLPNNTELTSPSGSFAE
modifications: Amblyomma triste
As to B2, the “Binding to CCL18_HUMAN, YSD” value with CCL18_HUMAN was “YES (An arbitrary threshold of >3 fold over background mean fluorescence intensity was chosen to describe confirmed re-tests. Where binding was detected data are indicated as “YES”)”. Besides, the “Binding to CCL17_HUMAN, YSD” value with CCL17_HUMAN is reported as “YES (An arbitrary threshold of >3 fold over background mean fluorescence intensity was chosen to describe confirmed re-tests. Where binding was detected data are indicated as “YES”)”. The “Binding to CCL25_HUMAN, YSD” value with CCL25_HUMAN is recorded as “YES (An arbitrary threshold of >3 fold over background mean fluorescence intensity was chosen to describe confirmed re-tests. Where binding was detected data are indicated as “YES”)”. In addition, the “Binding to CCL11_HUMAN, YSD” value with CCL11_HUMAN is given as “YES (An arbitrary threshold of >3 fold over background mean fluorescence intensity was chosen to describe confirmed re-tests. Where binding was detected data are indicated as “YES”)”. The “Binding to CCL5_HUMAN, YSD” value in the assay with CCL5_HUMAN is listed as “YES (An arbitrary threshold of >3 fold over background mean fluorescence intensity was chosen to describe confirmed re-tests. Where binding was detected data are indicated as “YES”)”.

B3: P1215_AMBPA: tick CKBP, Amblyomma parvum (protein, listed as Amblyomma parvum)
chain: KTDTKNAAGELPPKVVIPGCEDPATTKAPLPDEPPYYGITIDKDGCQRKVLGSSQRQQRKVQNGRKLDGKKRGRRPVFVDLELTVDCKRKCNGTYSQLPDGENCLVSDGYPYGRWGTIKGGCYQGNCSSGQCHRGEKKVNCYLPKNITNDVPKSLNLAE
On to B3, for which the “Binding to CCL18_HUMAN, YSD” value with CCL18_HUMAN is recorded as “YES (An arbitrary threshold of >3 fold over background mean fluorescence intensity was chosen to describe confirmed re-tests. Where binding was detected data are indicated as “YES”)”. Moreover, the “Binding to CXCL12_HUMAN, YSD” value with CXCL12_HUMAN is “YES (An arbitrary threshold of >3 fold over background mean fluorescence intensity was chosen to describe confirmed re-tests. Where binding was detected data are indicated as “YES”)”. For the same molecule, the “Binding to CCL11_HUMAN, YSD” value with CCL11_HUMAN is given as “YES (An arbitrary threshold of >3 fold over background mean fluorescence intensity was chosen to describe confirmed re-tests. Where binding was detected data are indicated as “YES”)”. In addition, in the assay with CCL5_HUMAN, the “Binding to CCL5_HUMAN, YSD” value is “YES (An arbitrary threshold of >3 fold over background mean fluorescence intensity was chosen to describe confirmed re-tests. Where binding was detected data are indicated as “YES”)”.

B4: P1220_IXORI: tick CKBP, Ixodes ricinus (protein, listed as Ixodes ricinus)
chain: GSTPSAMKTEDILKVLGSTSSLENHTDSSHCRYQELLDITKNIENAGFLAINCQRSCPNGKQTMVEGYGCIFKIKHATKRGKVKVKEGSCRKGACVRGSTRPPWRLLVLLGESKEEEFL
In the case of B4, in the assay with CCL25_HUMAN, the “Binding to CCL25_HUMAN, YSD” value is “YES (An arbitrary threshold of >3 fold over background mean fluorescence intensity was chosen to describe confirmed re-tests. Where binding was detected data are indicated as “YES”)”.

B5: P698_RHISA: tick CKBP, Rhipicephalus sanguineus (protein, listed as Rhipicephalus sanguineus)
chain: NEDDSSDYYDASPMNCSSMSVNSTMGWLSMNCTMSCNGTTFPLSNSTHCFHSYTNLTVQSRMETMTYNCSVGTCSNGTCVENGTTTTCW
As for B5, in the assay with CCL8_HUMAN, the “Binding to CCL8_HUMAN, YSD” value is “YES (An arbitrary threshold of >3 fold over background mean fluorescence intensity was chosen to describe confirmed re-tests. Where binding was detected data are indicated as “YES”)”. In addition, the “Binding to CCL5_HUMAN, YSD” value in the assay with CCL5_HUMAN was “YES (An arbitrary threshold of >3 fold over background mean fluorescence intensity was chosen to describe confirmed re-tests. Where binding was detected data are indicated as “YES”)”.
